Experimental data reported in US20190142971A1, “FORMULATION AND DELIVERY OF MODIFIED NUCLEOSIDE, NUCLEOTIDE, AND NUCLEIC ACID COMPOSITIONS” (ModernaTX, Inc., priority 2013, published 2019).

Columns and labels:
Format in all cases: in vivo
[1] = tested on: non-human primates (cynomolgus monkey); assay: Example 22: NHP cytokine interferon-alpha (Table 47)
Method: (§1) LNP formulations, shown in Table 33 (above), were administered to non-human primates (NHP) (cynomolgus monkey) (n=2) as intravenous injection (IV). The NHP were administered a single modified mRNA IV dose of 0.5 mg/kg, 0.05 mg/kg or 0.005 mg/kg of G-CSF or EPO in a dose volume of 0.5 mL/kg. The NHPs were bled before dosing with the modified mRNA LNP formulations to determine protein expression in the serum and a baseline complete blood count. After administration with the G-CSF modified mRNA formulation the NHP were bled at 8, 24, 48 and 72 hours to determined protein expression. After administration with the EPO modified mRNA formulation the NHP were bled at 8, 24, 48, 72 hours and 7 days to determined protein expression.

C57/BL6 mice = assay: Example 34: EPO mRNA in buffer IM or SC in mice, serum EPO (Table 60); conditions: 13 hours post injection
Method: Mice were intramuscularly or subcutaneously injected with 50 μl of the modified human EPO mRNA (h-EPO), modified luciferase mRNA (Luc) or the formulation buffer (F.Buffer) as described in the dosing chart Table 60. 13 hours post injection blood was collected and serum was analyzed to determine the amount human EPO for each mouse or rat.

[2] = tested on: non-human primates (cynomolgus monkey); assay: Example 22: NHP hematology: neutrophils, reticulocytes, HGB, HCT, RBC (Tables 40-44); conditions: for HCT / RBC: 0.005 mg/kg
Method: as §1
Samples collected from the NHPs after they were administered with G-CSF or EPO modified mRNA formulations were analyzed by ELISA to determine protein expression. Neutrophil and reticulocyte count was also determined pre-dose, 24 hours, 3 days, 7 days, 14 days and 18 days after administration of the modified G-CSF or EPO formulation.

B1: EPO: modified mRNA encoding human erythropoietin, SEQ ID NO: 7, Cap1, fully modified with 5-methylcytosine and pseudouridine; LNP NPA-060-1 in Examples 17-22 (nucleic acid)
chain: GGGAAAUAAGAGAGAAAAGAAGAGUAAGAAGAAAUAUAAGAGCCACCAUGGGAGUGCACGAGUGUCCCGCGUGGUUGUGGUUGCUGCUGUCGCUCUUGAGCCUCCCACUGGGACUGCCUGUGCUGGGGGCACCACCCAGAUUGAUCUGCGACUCACGGGUACUUGAGAGGUACCUUCUUGAAGCCAAAGAAGCCGAAAACAUCACAACCGGAUGCGCCGAGCACUGCUCCCUCAAUGAGAACAUUACUGUACCGGAUACAAAGGUCAAUUUCUAUGCAUGGAAGAGAAUGGAAGUAGGACAGCAGGCCGUCGAAGUGUGGCAGGGGCUCGCGCUUUUGUCGGAGGCGGUGUUGCGGGGUCAGGCCCUCCUCGUCAACUCAUCACAGCCGUGGGAGCCCCUCCAACUUCAUGUCGAUAAAGCGGUGUCGGGGCUCCGCAGCUUGACGACGUUGCUUCGGGCUCUGGGCGCACAAAAGGAGGCUAUUUCGCCGCCUGACGCGGCCUCCGCGGCACCCCUCCGAACGAUCACCGCGGACACGUUUAGGAAGCUUUUUAGAGUGUACAGCAAUUUCCUCCGCGGAAAGCUGAAAUUGUAUACUGGUGAAGCGUGUAGGACAGGGGAUCGCUGAUAAGCUGCCUUCUGCGGGGCUUGCCUUCUGGCCAUGCCCUUCUUCUCUCCCUUGCACCUGUACCUCUUGGUCUUUGAAUAAAGCCUGAGUAGGAAG
modifications: Cap1, 5-methylcytosine, pseudouridine
For B1, the IFN-alpha ([1]; 0.005 mg/kg, 4 days, Female NHP) was 0 pg/mL, the IFN-alpha ([1]; 0.005 mg/kg, 4 days, Male NHP) was 0 pg/mL and the IFN-alpha ([1]; 0.005 mg/kg, Day 1 + 8 hr, Female NHP) was 0 pg/mL. It also gave an IFN-alpha ([1]; 0.005 mg/kg, Day 1 + 8 hr, Male NHP) of 0 pg/mL, an IFN-alpha ([1]; 0.005 mg/kg, Pre-dose, Female NHP) of 0 pg/mL and an IFN-alpha ([1]; 0.005 mg/kg, Pre-dose, Male NHP) of 0 pg/mL. For the same molecule, the IFN-alpha ([1]; 0.05 mg/kg, 4 days, Female NHP) was 0 pg/mL, the IFN-alpha ([1]; 0.05 mg/kg, 4 days, Male NHP) was 0 pg/mL and the IFN-alpha ([1]; 0.05 mg/kg, Day 1 + 8 hr, Female NHP) was 0 pg/mL. The IFN-alpha ([1]; 0.05 mg/kg, Day 1 + 8 hr, Male NHP) was 0 pg/mL, the IFN-alpha ([1]; 0.05 mg/kg, Pre-dose, Female NHP) was 0 pg/mL and the IFN-alpha ([1]; 0.05 mg/kg, Pre-dose, Male NHP) was 0 pg/mL. The IFN-alpha ([1]; 0.5 mg/kg, 4 days, Female NHP) was 0 pg/mL, the IFN-alpha ([1]; 0.5 mg/kg, 4 days, Male NHP) was 0 pg/mL and the IFN-alpha ([1]; 0.5 mg/kg, Day 1 + 8 hr, Female NHP) was 217.5 pg/mL. It also gave an IFN-alpha ([1]; 0.5 mg/kg, Day 1 + 8 hr, Male NHP) of 16.79 pg/mL, an IFN-alpha ([1]; 0.5 mg/kg, Pre-dose, Female NHP) of 0 pg/mL and an IFN-alpha ([1]; 0.5 mg/kg, Pre-dose, Male NHP) of 0 pg/mL. The “Average Level in serum (human EPO)” value (C57/BL6 mice; mice IM, dose 1 μg) was 2.6 pg/mL, the “Average Level in serum (human EPO)” value (C57/BL6 mice; mice IM, dose 10 μg) was 25.9 pg/mL and the “Average Level in serum (human EPO)” value (C57/BL6 mice; mice IM, dose 25 μg) was 18.7 pg/mL. For the same molecule, the “Average Level in serum (human EPO)” value (C57/BL6 mice; mice IM, dose 50 μg) was 63.5 pg/mL, the “Average Level in serum (human EPO)” value (C57/BL6 mice; mice IM, dose 100 μg) was 96.2 pg/mL and the “Average Level in serum (human EPO)” value (C57/BL6 mice; mice SC, dose 100 μg) was 72.0 pg/mL. The “Female NHP HGB” value ([2]; 0.005 mg/kg IV, 14/18 days) was 129 g/L, the “Female NHP Neutrophils” value ([2]; 0.005 mg/kg IV, 14/18 days) was 2.54 10^9/L and the “Male NHP HGB” value ([2]; 0.005 mg/kg IV, 14/18 days) was 128 g/L. For the same molecule, the “Male NHP Neutrophils” value ([2]; 0.005 mg/kg IV, 14/18 days) was 1.52 10^9/L, the “Female NHP HGB” value ([2]; 0.005 mg/kg IV, 24 hours) was 128 g/L and the “Female NHP Neutrophils” value ([2]; 0.005 mg/kg IV, 24 hours) was 2.59 10^9/L. For the same molecule, the “Male NHP HGB” value ([2]; 0.005 mg/kg IV, 24 hours) was 122 g/L, the “Male NHP Neutrophils” value ([2]; 0.005 mg/kg IV, 24 hours) was 5.37 10^9/L and the “Female NHP HGB” value ([2]; 0.005 mg/kg IV, 3 days) was 130 g/L. The “Female NHP Neutrophils” value ([2]; 0.005 mg/kg IV, 3 days) was 2.83 10^9/L, the “Male NHP HGB” value ([2]; 0.005 mg/kg IV, 3 days) was 125 g/L and the “Male NHP Neutrophils” value ([2]; 0.005 mg/kg IV, 3 days) was 6.08 10^9/L. For the same molecule, the “Female NHP HGB” value ([2]; 0.005 mg/kg IV, 7 days) was 127 g/L, the “Female NHP Neutrophils” value ([2]; 0.005 mg/kg IV, 7 days) was 2.23 10^9/L and the “Male NHP HGB” value ([2]; 0.005 mg/kg IV, 7 days) was 119 g/L. For the same molecule, the “Male NHP Neutrophils” value ([2]; 0.005 mg/kg IV, 7 days) was 3.51 10^9/L, the “Female NHP HGB” value ([2]; 0.005 mg/kg IV, Pre-dose) was 136 g/L and the “Female NHP Neutrophils” value ([2]; 0.005 mg/kg IV, Pre-dose) was 5.96 10^9/L. For the same molecule, the “Male NHP HGB” value ([2]; 0.005 mg/kg IV, Pre-dose) was 132 g/L, the “Male NHP Neutrophils” value ([2]; 0.005 mg/kg IV, Pre-dose) was 5.46 10^9/L and the HCT ([2]; 14/18 days, Female NHP) was 0.42 L/L. The RBC ([2]; 14/18 days, Female NHP) was 5.36 10^12/L, the HCT ([2]; 14/18 days, Male NHP) was 0.42 L/L and the RBC ([2]; 14/18 days, Male NHP) was 5.67 10^12/L. For the same molecule, the HCT ([2]; 24 hours, Female NHP) was 0.43 L/L, the RBC ([2]; 24 hours, Female NHP) was 5.35 10^12/L and the HCT ([2]; 24 hours, Male NHP) was 0.42 L/L. The RBC ([2]; 24 hours, Male NHP) was 5.63 10^12/L, the HCT ([2]; 3 days, Female NHP) was 0.42 L/L and the RBC ([2]; 3 days, Female NHP) was 5.42 10^12/L. The HCT ([2]; 3 days, Male NHP) was 0.44 L/L, the RBC ([2]; 3 days, Male NHP) was 5.77 10^12/L and the HCT ([2]; 7 days, Female NHP) was 0.42 L/L. The RBC ([2]; 7 days, Female NHP) was 5.35 10^12/L, the HCT ([2]; 7 days, Male NHP) was 0.41 L/L and the RBC ([2]; 7 days, Male NHP) was 5.49 10^12/L. For the same molecule, the HCT ([2]; Pre-dose, Female NHP) was 0.45 L/L, the RBC ([2]; Pre-dose, Female NHP) was 5.72 10^12/L and the HCT ([2]; Pre-dose, Male NHP) was 0.48 L/L. For the same molecule, the RBC ([2]; Pre-dose, Male NHP) was 6.15 10^12/L, the “Female NHP HGB” value ([2]; 0.05 mg/kg IV, 14/18 days) was 129 g/L and the “Female NHP Neutrophils” value ([2]; 0.05 mg/kg IV, 14/18 days) was 1.27 10^9/L. For the same molecule, the “Male NHP HGB” value ([2]; 0.05 mg/kg IV, 14/18 days) was 133 g/L, the “Male NHP Neutrophils” value ([2]; 0.05 mg/kg IV, 14/18 days) was 1.53 10^9/L and the “Female NHP HGB” value ([2]; 0.05 mg/kg IV, 24 hours) was 116 g/L. For the same molecule, the “Female NHP Neutrophils” value ([2]; 0.05 mg/kg IV, 24 hours) was 2.63 10^9/L, the “Male NHP HGB” value ([2]; 0.05 mg/kg IV, 24 hours) was 123 g/L and the “Male NHP Neutrophils” value ([2]; 0.05 mg/kg IV, 24 hours) was 2.51 10^9/L. For the same molecule, the “Female NHP HGB” value ([2]; 0.05 mg/kg IV, 3 days) was 120 g/L.
